Assay results as given in patent US20160031998A1 (CSL, published 2016).
Substitutions are numbered along the chain they refer to. Each block holds one binder with its values, some of them ahead of it.

Experiments:
[1] = target: T1, soluble hG-CSFR: amino acids 25-335 of Homo sapiens G-CSFR with mutations C78A, C163S and C228S and a … (Homo sapiens, UniProt Q99062 25-335); assay: SPR (Biacore 2000), receptor immobilised on CM5 chip, IgG4 in solution
T1 chain: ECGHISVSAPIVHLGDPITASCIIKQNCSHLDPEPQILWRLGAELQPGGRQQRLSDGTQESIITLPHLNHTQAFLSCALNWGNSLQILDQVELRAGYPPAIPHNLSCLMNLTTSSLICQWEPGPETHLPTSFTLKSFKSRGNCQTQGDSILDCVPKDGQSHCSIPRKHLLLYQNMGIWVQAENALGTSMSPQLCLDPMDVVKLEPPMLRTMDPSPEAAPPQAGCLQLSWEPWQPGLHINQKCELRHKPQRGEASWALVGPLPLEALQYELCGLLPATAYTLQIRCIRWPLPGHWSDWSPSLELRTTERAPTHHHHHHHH
Method: (§1) Duplicate biosensor analysis of the antibodies c1.2 and 5D11 in IgG4 format were performed using a Biacore 2000 with a doubling dilution of the antibodies (312 nM to 2.4 nM in 0.1 mg/ml BSA) at a flow rate of 30 ul/min. Binding (100 μl) was monitored to respective flow cells containing control immobilized blank, immobilized cyno-G-CSFR-Fc, immobilized hG-CSFR-Fc and immobilized hG-CSFR. Receptor proteins (20 ug per ml in 20 mM Sodium Acetate pH 4.5) were previously immobilized to a CM5 chip using a NHS/EDC coupling kit as per the manufacturer's instructions (Biacore GE, Sweden). Target immobilization values were set at 700, 700 and 500 resonance units for cyno-G-CSFR-Fc, hG-CSFR-Fc and hG-CSFR, respectively. Chip immobilization was quenched with 50 mM ethanolamine pH 8.0. Dissociation of surface binding was monitored for 1000 seconds prior to desorption of the remaining complex using 50 mM Phosphoric acid. Reference binding was then subtracted from the control channel and kinetics generated using biaevaluation software on the Biacore 2000.

[2] = target: T2, cynoG-CSFR-Fc: corresponding segment of cynomolgus monkey G-CSFR with an Fc sequence attached to its … (Macaca fascicularis, UniProt Q99062 25-335 (human entry)); assay: as above
T2 construct: the Fc is not specified; also called cynomolgus monkey G-CSFR-Fc
T2 chain: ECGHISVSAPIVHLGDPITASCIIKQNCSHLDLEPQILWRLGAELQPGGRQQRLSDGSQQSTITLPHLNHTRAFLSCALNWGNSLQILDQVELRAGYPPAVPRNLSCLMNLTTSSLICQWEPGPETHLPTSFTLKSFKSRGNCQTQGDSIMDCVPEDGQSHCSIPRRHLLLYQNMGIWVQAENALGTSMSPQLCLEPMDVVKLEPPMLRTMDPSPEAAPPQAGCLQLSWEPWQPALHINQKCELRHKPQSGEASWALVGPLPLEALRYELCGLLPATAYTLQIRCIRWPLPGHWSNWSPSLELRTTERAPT
Method: as §1

[3] = target: T3, hG-CSFR-Fc: polypeptide of SEQ ID NO: 1 in which the C-terminal polyhistidine tag is replaced with an Fc … (Homo sapiens, UniProt Q99062 25-335); assay: as above
T3 construct: the Fc is not specified; also called human G-CSFR-Fc; hG-CSFR-Fc fusion
T3 chain: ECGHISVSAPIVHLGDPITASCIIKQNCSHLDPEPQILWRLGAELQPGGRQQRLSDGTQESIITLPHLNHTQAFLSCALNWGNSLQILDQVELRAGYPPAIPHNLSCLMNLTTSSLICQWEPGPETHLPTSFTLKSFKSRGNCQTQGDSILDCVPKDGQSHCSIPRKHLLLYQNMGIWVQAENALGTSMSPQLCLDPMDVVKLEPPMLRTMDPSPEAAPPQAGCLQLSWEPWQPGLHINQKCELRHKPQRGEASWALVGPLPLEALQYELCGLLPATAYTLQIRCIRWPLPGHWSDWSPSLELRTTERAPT
Method: as §1

[4] = target: T4, human G-CSFR expressed on cells (Homo sapiens, UniProt Q99062 25-836); assay: cell-based or functional assay
T4 sequence: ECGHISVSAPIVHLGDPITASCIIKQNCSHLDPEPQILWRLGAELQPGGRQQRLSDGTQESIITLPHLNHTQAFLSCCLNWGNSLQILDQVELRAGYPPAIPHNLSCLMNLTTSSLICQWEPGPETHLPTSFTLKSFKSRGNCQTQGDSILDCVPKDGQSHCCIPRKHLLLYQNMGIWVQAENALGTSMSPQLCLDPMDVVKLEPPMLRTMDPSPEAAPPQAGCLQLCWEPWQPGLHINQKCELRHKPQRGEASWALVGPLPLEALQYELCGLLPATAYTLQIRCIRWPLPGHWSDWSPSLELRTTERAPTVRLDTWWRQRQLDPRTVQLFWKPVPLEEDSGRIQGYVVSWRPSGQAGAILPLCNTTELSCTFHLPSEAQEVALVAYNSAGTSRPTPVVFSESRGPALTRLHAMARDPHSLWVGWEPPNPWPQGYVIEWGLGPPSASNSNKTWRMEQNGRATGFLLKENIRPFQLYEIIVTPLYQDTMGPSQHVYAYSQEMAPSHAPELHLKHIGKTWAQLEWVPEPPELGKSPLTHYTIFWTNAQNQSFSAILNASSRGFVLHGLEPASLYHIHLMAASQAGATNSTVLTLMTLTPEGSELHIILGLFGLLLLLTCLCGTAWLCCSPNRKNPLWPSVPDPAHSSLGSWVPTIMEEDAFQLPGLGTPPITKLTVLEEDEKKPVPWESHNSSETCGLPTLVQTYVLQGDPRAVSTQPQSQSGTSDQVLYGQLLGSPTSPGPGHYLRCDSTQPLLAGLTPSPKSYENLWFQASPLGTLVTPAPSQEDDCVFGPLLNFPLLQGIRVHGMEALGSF

[5] = target: T1, soluble hG-CSFR: amino acids 25-335 of …; assay: SPR (Biacore 2000), receptor immobilised on CM5 chip, Fab in solution
Method: (§2) Duplicate biosensor analysis of the Fab were performed using a Biacore 2000 (GE, Sweden) with a doubling dilution of Fab antibodies (100 nM to 0.39 nM in 0.1 mg/ml BSA) at a flow rate of 30 μl/min. Binding (100 μl) was monitored to respective flow cells containing control immobilised blank, immobilized cyno G-CSFR-Fc, immobilized human G-CSFR-Fc and immobilized human G-CSFR. Receptor proteins (20 μg per ml in 20 mM Sodium Acetate pH 4.5) were previously immobilized to a CM5 chip using a NHS/EDC coupling kit as per the manufacturer's instructions (Biacore GE, Sweden). Target immobilization values were set at 700, 700 and 500 resonance units for cyno G-CSFR-Fc, hG-CSFR-Fc and hG-CSFR, respectively. Chip immobilisation was quenched with 50 mM ethanolamine pH 8.0. Dissociation of surface binding was monitored for 1000 seconds prior to desorption of the remaining complex using 50 mM Phosphoric acid. Reference binding was then subtracted from the control channel and kinetics generated using biaevaluation software on the Biacore 2000.

[6] = target: T2, cynoG-CSFR-Fc: corresponding segment of …; assay: as above
Method: as §2

[7] = target: T3, hG-CSFR-Fc: polypeptide of SEQ ID NO: 1 …; assay: as above
Method: as §2

[8] = target: T4, human G-CSFR expressed on cells; assay: cell-based or functional assay; remark: listed apart in the source
[9] = target: T5, wild type hG-CSFR (soluble, corresponding extracellular domains of the wild type receptor) (Homo sapiens, UniProt Q99062 25-335); assay: SPR (Biacore), mAb captured by anti-Fc, soluble wild type receptor injected
T5 construct: also called wt hG-CSFR
T5 sequence: T3 chain with A78C, S163C, S228C

[10] = target: T4, human G-CSFR expressed on cells; assay: binding to BaF3 cells expressing hG-CSFR; method not described; hG-CSFR on the cell surface of BaF3 cells

Kd [1]: 0.027 nM
Kd [2]: 0.054 nM
Kd [3]: 0.077 nM
IC50, inhibition of CFU-G formation by CD34+ bone marrow cells in the presence of G-CSF [4]: 0.016 nM
IC50, inhibition of G-CSF-mediated proliferation of BaF3 cells expressing hG-CSFR [4]: 0.5 nM
B1: C1.2 IgG4 antibody (antibody, V domains shown)
VH: EVQLLESGGGLVQPGGSLRLSCAASGFTFSLYWMGWVRQAPGKGLEWVSSISSSGGVTPYADSVKGRFTISRDNSKNTLYLQMNSLRAEDTAVYYCAMLGELGWFDPWGQGTLVTVSS
VL: DIQMTQSPSALSASVGDRVTITCRASQGISSYLNWYQQKPGKAPKLLIYYASNLQNGIPSRFSGSGSGTDFTLTISSLQPEDFATYHCQQSYSTPLTFGGGTNVEIR
notes: human IgG4 format; also called C1.2 Ab

Kd [5]: 0.37 nM
Kd [6]: 0.39 nM
Kd [7]: 0.33 nM
B2: C1.2 Fab (Fab, V domains shown)
VH: B1 VH
VL: B1 VL
notes: human Fab (papain digest of the antibody or E. coli expression); also called Fab C1.2

IC50 (nM), inhibition of G-CSF-mediated proliferation of BaF3 cells [8]: 0.32 nM
Kd [9]: 1.4 nM
Kd [10]: 0.257 nM
IC50, inhibition of G-CSF-mediated proliferation of BaF3 cells expressing hG-CSFR (3H-thymidine incorporation) [4]: 0.8 µg/mL
B3: C1.2G (germlined C1.2), human IgG4 (antibody, V domains shown)
VH: B1 VH with M98K
VL: B1 VL with A10S, I58V, H87Y, N103K, R107K
notes: Human IgG4/kappa; also called C1.2 germline mAb; C1.2G (human IgG4)
